Among the data in article PMC3751554 are restriction of infection: ratio of infection titers on CHO cells stably expressing mafa-TRIMCypA over control CHO cells (infectivity ratio), restriction of infection: ratio of infected cells in CHO cells stably expressing owl-TRIMCypA over control CHO cells (infectivity ratio) and restriction of infection: ratio of infection titers on CHO cells stably expressing mamu-TRIMCypA over control CHO cells (infectivity ratio) values, retold here.

The target of assay [1] is TRIMCypA from Macaca fascicularis (Macaca fascicularis).
Assay [2] addresses owl monkey TRIMCypA fusion protein (owl monkey (Aotus sp.)).
Assay [3] has as its target TRIMCypA from Macaca mulatta (Macaca mulatta).

For the substance SIVgsn capsid (CA) (natural protein), the restriction of infection: ratio of infection titers on CHO cells stably expressing mafa-TRIMCypA over control CHO cells (infectivity ratio) in assay [1] was under 0.4.

With SIVmnd1 capsid (CA) (natural protein), the restriction of infection: ratio of infection titers on CHO cells stably expressing mafa-TRIMCypA over control CHO cells (infectivity ratio) in assay [1] was under 0.4. Further, the restriction of infection: ratio of infected cells in CHO cells stably expressing owl-TRIMCypA over control CHO cells (infectivity ratio) in assay [2] was under 0.4.

Take HIV-2ROD capsid (CA) (natural protein): the restriction of infection: ratio of infection titers on CHO cells stably expressing mamu-TRIMCypA over control CHO cells (infectivity ratio) in assay [3] was under 0.2.
